Test results published in patent US20040170622A1, “Methods and compositions for modulating XBP-1 activity” (President and Fellows of Harvard College, priority 2002, published 2004).

Tests used:
[1] = system: XBP-1; assay: XBP-1 dependent gene expression in dn-XBP / iXBP transduced J558 cells (Northern, Western blot); assay type: cell-based
Text: (A) Synergistic effect of Tm and MG-132 on apoptosis. Annexin V positive cells were counted after treating J558 cells for 18 hrs with suboptimal concentrations of Tm and MG-132 as indicated. (B) J558-iXBP cells were generated by retroviral transduction of J558 cells with the U6 promoter based XBP-1 RNAi vector. (C) XBP-1 dependent gene expression in J558 cells that express control GFP, dn-XBP or iXBP-1 treated with Tm. Generation of dn-XBP-1 J558 cells by infection with a retrovirus containing dn-XBP cDNA inserted into the GFP-RV vector (N. N. lwakoshi et al., Nature Immunology 4, 321-329 (2003)). ERdj4, p58^IPK, BiP and CHOP gene expression were examined by Northern blot analysis. (D) Increased apoptosis in iXBP-1 and dn-XBP-1 expressing J558 cells. Cells were treated with the indicated amounts of Tm for 48 hrs and dead cells counted after Annexin V staining.
Total RNA was prepared by using Trizol reagent, electrophoresed on 1.2% agarose, 6% formaldehyde gels and then transferred onto Genescreen Plus membrane, (NEN, Boston, Mass.). […] Probes for ERdj4 and p58^IPK were generated from cDNA excised from EST clones (ATCC, Manassas, Va.) using appropriate restriction enzymes (ERdj4, IMAGE: 1920927; p58^IPK, IMAGE:2646147). […]

[2] = system: UPR target genes; assay: UPR target gene induction by Tm in MEF-dn-XBP cells (Northern blot); assay type: cell-based; details: 10 μg/ml Tm
Description: (A) The 5×ATF6GL3 reporter plasmid was cotransfected with either pCGNATF6α or XBP-u/s plasmids into MEF cells with or without the dominant negative XBP-1 expression plasmid. 100 ng DNA was used for each transfection except for pCDNA3.1, which was added to give 1 μg of DNA in total. Luciferase assays were performed as described in the legend to FIG. 18.(B) MEF and MEF-dn-XBP cells that stably express dominant negative XBP-1 protein were treated with 10 μg/ml Tm for the indicated time periods. Total RNAs were isolated and subjected to Northern blot analysis. The same blot was hybridized sequentially with BiP, CHOP, ERdj4, p58^ipk and ATF6α probes. Ethidium bromide staining of the gel before blotting is shown at the bottom as loading control.
293T and MEF cells derived from wild type and XBP-1^−/− embryos were cultured in DMEM supplemented with 10% fetal calf serum (Hyclone Laboratories). MEF-tet-off cells (Clontech) were maintained in the same media with the addition of 100 μg/ml G418 and 1 μg/ml doxycycline. XBP-1s inducible cells were obtained by transfecting MEF-tet-off cells with the TREhyg-XBP-1s plasmid and then selecting in the presence of 400 μg/ml hygromycin B. Several clones were tested for doxycycline-dependent XBP-1s expression, and one was selected for further experiments. MEF-dn-XBP cells were generated by transfecting MEF-tet-off cells with the TREhyg-dn-XBP plasmid. […]

B1: dn-XBP: dominant negative XBP-1 containing the N-terminal 188 aa, lacking transactivation domain, retaining leucine zipper (protein)
chain: MVVVAAAPSAATAAPKVLLLSGQPASGGRALPLMVPGPRAAGSEASGTPQARKRQRLTHLSPEEKALRRKLKNRVAAQTARDRKKARMSELEQQVVDLEEENHKLQLENQLLREKTHGLVVENQELRTRLGMDTLDPDEVPEVEAKGSGVRLVAGSAESAAGAGPVVTSPEHLPMDSDTVASSDSESD
induction of BiP and CHOP by Tm [1]: minimally affected
induction of ERdj4 and p58IPK by Tm [1]: greatly reduced induction of XBP-1-dependent UPR target genes, ERdj4 and p58^IPK
induction of CHOP by Tm [2]: suppressed the induction of CHOP
induction of ERdj4 and p58ipk by Tm [2]: significantly suppressed the induction of XBP-1 target genes, ERdj4 and p58^ipk
